Here are results for 22 sequences from the DeepSol protein solubility set.

A short description of this data set: soluble on expression in E. coli; label from the status in PepcDB or PDB records.
Consider “MSDVARILKEARDQGRLTALDFAKEIFDDFIELHGDRNFRDDGAVIGGIGRLNGQAVTVVGIQKGKNLQDNLNRNFGQPHPEGYRKALRLMKQAEKFGRSVVTFINTAGAYPGVGAEERGQGEAIARNLMEMSDLKVPIIAIIIGEGGSGGALALAVADKVWMLENTIYSILSPEGFATILWKDGSRSEEAAELMKITSGELLNMGIVDKVIPERGYFTSEIIEAIKTAIVDELAELSQLSTEDLLEARYQRFRKY”, for which the “soluble on expression in E. coli” value is reported as “not soluble”. With “MSEAEAKLWQHLRAGRLNGYKFRRQQPMGNYIVDFMCVTPKLIVEADGGQHAEQAVYDHARTVYLNSLGFTVLRFWNHEILQQTNDVLAEILRVLQELEKQ”, the “soluble on expression in E. coli” value is listed as “soluble”.

Turning to “MSEASRDDYKIQSFDAQTQQLLKTALKDPGAVDLERVANVIVDHSLQDCVFSKEAGRMCYAIIQAESKQAGQSVFRRGLLNRLQKEYDAREQLRACSLQGWVCYVTFICNIFDYLRVNNMPMMALVNPVYDCLFQLAQPESLSREEEVDCLVLQLHRVGEQLEKMNGQRMDELFILIRDGFLLPTDLSSLARLLLLEMIEFRAAGWKTTPAAHKYYYSEVSD”, the “soluble on expression in E. coli” value is “not soluble”. The result for “MSEFSQTVPELVAWARKNDFSISLPVDRLSFLLAVATLNGERLDGEMSEGELVDAFRHVSDAFEQTSETIGVRANNAINDMVRQRLLNRFTSEQAEGNAIYRLTPLGIGITDYYIRQREFSTLRLSMQLSIVAGELKRAADAAEEGGDEFHWHRNVYAPLKYSVAEIFDSIDLTQRLMDEQQQQVKDDIAQLLNKDWRAAISSCELLLSETSGTLRELQDTLEAAGDKLQANLLRIQDATMTHDDLHFVDRLVFDLQSKLDRIISWGQQSIDLWIGYDRHVHKFIRTAIDMDKNRVFAQRLRQSVQTYFDEPWALTYANADRLLDMRDEEMALRDEEVTGELPEDLEYEEFNEIREQLAAIIEEQLAVYKTRQVPLDLGLVVREYLSQYPRARHFDVARIVIDQAVRLGVAQADFTGLPAKWQPINDYGAKVQAHVIDKY” reads “soluble”; that for “MSEHVFETEQVYPALGKVEIAPEVIEVIAGIAASEVDGIAQMRGNFAAGVAERFGKKHHGKGVKVDLRDDGVVIDLYCLVQFGASIPNVAKKVQENVRQALWNMTGLEASEVNVHIVGIQFEGGKQEQGVVEQ”, “not soluble”.

Regarding “MSEIEELVCIEASVTRKSTSNTVEIRESRRNKVTLGSSDSPAFPTPHLFLKNIVSFDEQSMYNLLYPRLQDPNLCSILSFKIAFEAKRVPGPLYISYDVTLTPQIFEEPDMETCGLCLLEEQHLFDMPNCAHVFHGDCIDKWLSTSNNCPLCGVEIMDDDE”, the “soluble on expression in E. coli” value is listed as “soluble”. For the sequence “MSEKMVAIMKTKPGYGAELVEVDVPKPGPGEVLIKVLATSICGTDLHIYEWNEWAQSRIKPPQIMGHEVAGEVVEIGPGVEGIEVGDYVSVETHIVCGKCYACRRGQYHVCQNTKIFGVDTDGVFAEYAVVPAQNIWKNPKSIPPEYATLQEPLGNAVDTVLAGPISGKSVLITGAGPLGLLGIAVAKASGAYPVIVSEPSDFRRELAKKVGADYVINPFEEDVVKEVMDITDGNGVDVFLEFSGAPKALEQGLQAVTPAGRVSLLGLYPGKVTIDFNNLIIFKALTIYGITGRHLWETWYTVSRLLQSGKLNLDPIITHKYKGFDKYEEAFELMRAGKTGKVVFMLK”, the “soluble on expression in E. coli” value is “soluble”. The result for “MSEKVVFSQLSRKFIDENDATPAEAQQVVYYSLAIGHHLGVIDCLEAALTCPWDEYLAWIATLEAGSEARRKMEGVPKYGEIVIDINHVPMLANAFDKARAAQTSQQKEWSTMLLSMLHDIHQENAIYLMVRRLRD” reads “not soluble”. As to “MSELLSSVSQQLLAPGGLELDSLPGILHELNGPGIDAADLYFQSQVSESWMLEDGIVKEGSFNLDQGVGVRAQSGEKTGFAYSNAITAEALKQAAVAARSISRAGQNGSVQAFKAVVPARLYAGENPLDVLSRAEKVELLKQIDAATRALDPRIQQVTVSMAGVWEQILVAASDGSLAADIRPLVRFNVSVIVEQNGRRERGGHGGGGRTDYRYFLQEDRAMGYAREALRQALVNLEAIPAPAGTLPVVMGAGWSGVLLHEAVGHGLEGDFNRKGSSAYSGRVGEKVASSLCTIVDDGTLAGRRGSLSVDDEGTPSNCNVLIENGVLKGYMQDKLNARLMGVARTGNGRRESYAHLPMPRMTNTYMLAGESDPQEIIASVEKGIYCANLGGGQVDITSGKFVFSTSEAYLIENGRITTPVKGATLIGNGPEAMSRVSMVGNDLALDSGVGTCGKDGQSVPVGVGQPTLKIDAITVGGTGA”, the “soluble on expression in E. coli” value is given as “not soluble”. As to “MSENSENAPEKVEFTPIGYVENDYFKPEYKEEVYEKVSKIVLREDLVDGLYRVEELEKLYILFYFSKSEGYKLIHRRRYDGEMSGVFASRSPYRPNGIGLTLVELLKVEGNVLYVKGLDAINGTPVLDIKPYMKDLEEKEKENTKLEHHHHHH”, the “soluble on expression in E. coli” value is “soluble”. Next, “MSEPISPRTPQQALAALLARYAPKHLLLVGASRLPAVEAFIHNHPQCQLAHSPAAALPAELAGQRFDLALFVDCLEHLPQRTGLQLLAGVRNLNASRVAVLVDLEASDWQETDFFALAMQNSERFQREGQTLTLYTYDLYEYKQVPDWLNAKFWANPENFGKYWW”: “not soluble”; “MSERLFVLSQHILPKLALTRLAGRFADWKGGGITTAAIRRFIARYNVDMGEAADSDPAAYATFNDFFTRALKPGVRPVADARLVCPVDGAVSQLGAIDSGRIFQAKGRDYSATALLAGDADLAARFADGHFATIYLSPRDYHRIHMPCAGRLLEMTYVPGDLYSVNPATARGVDRLFARNERVVCVFEDEQSQPFVMVLVGATIVGSMATVWHGVVNPPRRPAVEKWDYRGQDIRLAKGEEMGRFLLGSTVVLLYPAGPLKFNPQWQAASPVRMGEAMASLEHHHHHH”: “not soluble”. The result for “MSETFSGFDTAPVARVQAAFEEIAHRSMHDLSFLHPTMPVHVSDFTLFEGQWTGTVITPWMLSALIFPGPDQIWPRRTVGEKLGLQLPYGTMTFTVGELEGVSQYLACSLMSPLSRSLSPEEGVRLADDCARMLLSLPVSNPDAPQTSRRALLFGRRSCENA” reads “not soluble”; that for “MSETLDQWRAGLTLGFAPGHAGRTVLRERAHYGPMLVQRALYPEGPQVCHVAILHPPSGIAGGDALEIRVDVAGGARAALTTPGATRWYKSNGRQASQDVHLRVAAGGRLDWLPLESIFFEEADALARNRIQLESGAAAIGWDLIQLGRVNQSGHWSQGRLHTATELYVDGRLLWVDQGLVGAQDDVRRQVSGLAGFPVHAALWSFGPRLDAEQNEELAGLMPWSDTLRGAATTMPYDATQSLCLVRCLGVHMEDVRAVMTDAWAYLRPRVLDTPAVVPRLWATKLAAALEHHHHHH”, “not soluble”; that for “MSETRRNQSSDEQIEKSEIQHQRVVIENSHGEKLVGVLHDTGSTETVVICHGFRSSKNRIPMLTIASFFERAMISSFRFDFAGNGESQGSFQYGNYRREVEDLRSVLQHLRGVNRVISAIIGHSKGGNVVLLYAAKYNDVQTVVNISGRFFLDRGIEFRLGKDYFKRIKDNGFIDVSNRKGKFEYRVTEESLMDRLTTNAHEACLSIRENCRVLTVHGSNDRIVHVTEASEFAKQIKNHKLYVIEGADHEFTSHQHQLASIVLSFFKLDPKKDDESGDISTSNQDSMRSVVPITSRI”, “soluble”. Turning to “MSEVIDLASPIEAHGETLSQVTFRRPTAQEARAIKALPYKIDKNEDVSLDLDVAAKYIAVCAGIPPSSVNQMDLCDINTLSWKVASFFMAAASATLKD”, the “soluble on expression in E. coli” value is given as “soluble”. For “MSEVVKKFMYLNRKAPYGTIYAWEALEVVLIGAAFDQDVCVLFLDDGVYQLTRGQDTKGIGMKNFSPTYRTLGDYEVRRIYVDRDSLEARGLTQDDLVEIAFEDMETEEEFDNIVEVIDSARVSELMNESDAVFSF”, the “soluble on expression in E. coli” value is reported as “soluble”.

As to “MSFDADEEILQDFLVEAGEILEQLSEQLVELESRPDDMDLLNAIFRGFHTVKGGAGFLQLNALVECCHIAENVFDILRKGERRVSSELMDVVLQALDTVNAMFDQVREQSEPTPATPELLAALARLAEPEGAEPAEPVQAPPAAVPPAEPAAPPEAPAQSASSDITDDEFEQLLDALQGDEAPASAVAEAPAAPAGDEISDAEFEALLDQLHGKGKFVPPAVSAEPAQVPAEAVEPAAAAAGDDISDDEFEALLDELHGKGKFGDVPEAAGTPAAPAAAAPAAAPAEQGKAPAAAGGDEISDDEFESLLDELHGKGKFNGASEAVAAAAAVAKNIAAKSPAAKPVAPAKAAAARPAAPDRPAASEAETTVRVDTARLDEIMNMVGELVLVRNRLVRLGLNSGDEAMAKAVANLDVVTGDLQMSVMKTRMQPIKKVFGRFPRLVRDLARNMKKEINLELVGEETDLDKNLVEALADPLVHLVRNAVDHGIESPEEREAAGKPRVGQVVLSAEQEGDHILLMITDDGKGMDAEVLRNKAVEKGLLERDAADRLTDLECYNLIFAPGFSTKTEISDVSGRGVGMDVVKTKISQLNGTVNVFSQKGSGSKIVIKVPLTLAIMPTLMVMLGSQAFAFPLVNVNEIFHLDLSRTNVVDGQEVVIVRDKALPLFYLKRWLVPSAAHEEQGEGHVVILSVGTQRIGFVVDQLVGQEEVVIKPLGKMLQGTPGMAGATITGDGRIALILDVPSMLKRYARRI”, the “soluble on expression in E. coli” value is reported as “not soluble”.

Turning to “MSFDANIATQYYILMTIKTFRCADPETLFKLGRVARFVNIERPALRKLKQLDLARCIEDIRVPPANRPEILKGDRAGQHSIRINDQWRVCFRWTGTDAEDVEIVDYH”, the “soluble on expression in E. coli” value is “not soluble”. For “MSFEKLQKELHEAIEGVNRYNPENVADLAACVQAMVNENKYDKDIVLTILKLYQLNPEKYDEAVVRQVLLKTLMVLPSSDFALAKCLIDTNRLGSQELRRIFDLGAVLESCNFAVFWKLVKGAYKPTTNPNEPFKVPGEVPKMIKPMVGFEDAVKHYACRVISVTFQKIEKKMLSRLLGGASDKEVTALAQSFGWEAKENGDVFFVANHEGTIKTRNIDEKIQFPHVADLLTSIQPPLTL”, the “soluble on expression in E. coli” value was “not soluble”. Take “MSFFHASQRDALNQSLAEVQGQINVSFQFFPPRTSEMEQTLWNSIDRLSSLKPKFVSVTYGANSGERDRTHSIIKGIKDRTGLEAAPHLTCIDATPDELRTIARDYWNNGIRHIVALRGDLPPGSGKPEMYASDLVTLLKEVADFDISVAAYPEVHPEAKSAQADLLNLKRKVDAGANRAITQFFFDVESYLRFRDRCVSAGIDVEIIPGILPVSNFKQAKKFADMTNVRIPAWMAQMFDGLDDDAETRKLVGANIAMDMVKILSREGVKDFHFYTLNRAEMSYAICHTLGVRPGLLEHHHHHH”: the “soluble on expression in E. coli” value was “soluble”.

For “MSFKDPPTLQQLARRSLLKDEALTISALPNLPVQLFPPLFKDAFTSRQRKILSLMVATWPFPVLPVGALCGIDHLETLKAVLDGLDLLMSQKDRPSRWNLQVLDLRDAHQDFWDGWAGLLHEVCSQDVFGKNQPVGNHPIPGGKQTISIKMNLSLKYCRRHSHCENLNYLYYWAKQRKDVIQVIFEKLEFTGKHCLRLKLWRLLKLSFVASIQELTIKSIHWDIYNLALIASCLGQMKNLQKLILMNIRRPSSLTDLQEARIITEIFSEFSKLHKLQHLYVNDVYFLKERLDLMLRCFERPLETLTITYCKLSESDMRYLSQCPSIHQLKYLDMSYTTFKPSSHRFLGFLGSLLERLTATLQTLKLECFHLTDSRIRDLLPGLSQCSQLTEVDFVENKFSMVSLKTLLQHTANLTQLTLEKYPAPDEVYDDSLCVIPDRFVQLCSELMNTLKGVRQPKQVYFESTIYSPNFEYLVYNLEGMVSSEPLRRRGRGMVIYISG”, the “soluble on expression in E. coli” value is “not soluble”.
